This experiment concerns the target T1, recombinant hMUC1-C (rhMUC1-C) protein (human, UniProt P15941 961-1152).
T1 construct: Expressed in E. coli Rosetta (not glycosylated), purified from inclusion bodies in 8 M urea over Ni-NTA; also called hMUC1-C terminal protein; not shown: C-terminal His-tag of vector pET-22b
T1 sequence: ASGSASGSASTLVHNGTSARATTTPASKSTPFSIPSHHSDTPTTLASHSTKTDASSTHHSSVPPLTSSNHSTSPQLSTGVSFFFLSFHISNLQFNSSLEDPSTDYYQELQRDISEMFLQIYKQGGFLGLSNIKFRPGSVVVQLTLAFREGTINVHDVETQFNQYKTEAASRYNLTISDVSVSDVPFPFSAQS
Kind of experiment: ELISA of hybridoma culture supernatant on coated rhMUC1-C. As to the method:
The total amount of rhMUC1-C-specific IgG was measured by ELISA. A 96-well immunoplate was coated with 10 […] of rhMUC1-C protein (Example 2) and blocked with bovine serum albumin (BSA) in PBS-T (PBS containing 0.1% (v/v) Tween-20). The mouse serum immunized in Example 5, hybridoma cell culture supernatant, or purified antibody was diluted with PBS-T and cultured at room temperature for 2 hours. The plate was washed 3 times with PBS-T and cultured with a goat anti-mouse IgG HRP-conjugated secondary antibody for 1 hour. The plate was developed using TMB substrate solutions A and B (1:1 ratio) (Kirkegaard and Perry Laboratories, Gaithersburg, Md., USA), the absorbance was measured at 450 nm using a Spectra Max 250 microplate reader (Molecular Devices, Sunnyvale, USA), and a colorimetric assay was performed.
The spleen cells from mice immunized with rhMUC1-C protein in Example 5 were fused with SP2/0 myeloma cells (ATCC) using polyethylene glycol (PEG, Sigma-Aldrich). The fused cells were cultured and selected as a hypoxanthine-aminopterin-thymidine (HAT, Sigma-Aldrich) medium. The culture supernatant of the selected hybridoma cells was subjected to testing for binding to rhMUC1-C protein through ELISA and hybridoma cells, which were positive for binding, i.e., produced rhMUC1-C protein-specific antibody, were screened. […]

B1: anti-hMUC1 monoclonal antibody purified from hybridoma hMUC1-1H7 (KCLRF-BP-00395) (antibody, V domains shown)
VH: EVQLQQSGAELAKPGASVKMSCKVSGYTFTSYWMHWVKQRPGQGLEWIGYINPGTGYIEYNQKFKDKATLTADKSSSTAYMQLSSLTSEDSAVYYCASSTAPFDYWGQGTTLTVSS
VL: DIVITQSPSSMYASLGERVTITCKASQDIKSYLSWYQQKPWKSPKTLIYYATRLADGVPSRFSGSGSGQDYSLTISSLESDDTATYYCLQYDESPYTFGGGTKLEIKR
notes: also called anti-hMUC1 antibody; anti-hMUC1-C mouse antibody (1H7)
With B1, the binding result is reported as “binds”.

The record behind these values is patent US20210115153A1 (PEPTRON, published 2021).
